The text below walks through data of article PMC11148069 (The EMBO Journal, 2024).

Data set [1] deals with the molecule itself. Put plainly: crystal structure; hNup35(173–248)·xhNup35-Nb1t complex; 0.05 M HEPES pH 6.5, 25% PEG400, 0.05 M NaCl, 0.01 M MgCl2.
Data set [2] has as its target T1, xNup93(168–820), α-solenoid domain of Xenopus laevis Nup93 (Xenopus laevis, UniProt Q7ZX96).
T1 construct: also called Nup93 α-solenoid domain; source: E. coli NEB Express, purified, untagged
As to the kind of experiment: cryo-EM structure; equimolar trimeric xNup93(168–820)·xhNup93-Nb4i·xNup93-Nb2t complex; 4.4 Å reconstruction. As to conditions: both partners purified.

For data set [3], the target named is T2, xNup98-APD (residues 714–864), autoproteolytic domain of Xenopus tropicalis Nup98 (Xenopus tropicalis).
T2 construct: also called APD of Xenopus tropicalis xNup98; source: E. coli NEB Express, purified, untagged
T2 chain: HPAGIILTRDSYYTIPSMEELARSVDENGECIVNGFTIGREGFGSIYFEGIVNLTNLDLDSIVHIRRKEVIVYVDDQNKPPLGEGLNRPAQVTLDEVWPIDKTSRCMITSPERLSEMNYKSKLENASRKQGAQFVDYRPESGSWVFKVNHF
Put plainly: crystal structure; xNup98-APD(714–864) with xhNup98-Nb2i or xhNup98-Nb3i; 2.5% PEG6000, 25% PEG MME500, 100 mM Tris/HCl pH 9. As to conditions: both partners purified.

Data set [4] concerns the target T3, hNup35 (residues 173–248), RRM domain (human, UniProt Q8NFH5).
T3 construct: Nup35 (also called Nup53 or MP44), human, RRM domain, residues 173-248; also called homodimeric RRM domain of Homo sapiens (h)Nup35; Nup35 RRM; source: E. coli NEB Express, purified, untagged
As to the kind of experiment: crystal structure; hNup35(173–248)·xhNup35-Nb1t complex; 0.05 M HEPES pH 6.5, 25% PEG400, 0.05 M NaCl, 0.01 M MgCl2. As to conditions: both partners purified.

A further data set concerns the target T4, human Nup35, endogenous (Homo sapiens (HeLa), UniProt Q8NFH5).
T4 construct: Nup35, human; also called hNup35; source: endogenous, in NPCs of HeLa cells
Put plainly: immunostaining of cells or tissue; sfGFP-Nup107 HeLa cells, PFA-fixed and Triton X-100-permeabilized or unfixed and digitonin-semi-permeabilized; 35 nM Alexa Fluor 647-labelled nanobody, 30 min, RT; confocal microscopy. As to conditions: one partner purified.

For data set [5], the target named is T5, Xenopus Nup35, endogenous (Xenopus laevis (egg extract), UniProt Q6INW0).
T5 construct: Nup35 of Xenopus egg extract; also called xNup35; source: endogenous, from Xenopus egg extract, in newly assembled NPCs
As to the kind of experiment: immunostaining of cells or tissue; digitonin-semi-permeabilized sfGFP-Nup107 HeLa cells incubated 2 h at RT with buffer or Xenopus egg extract, energy mix and 35 nM fluorescent tracking nanobodies; Airyscan confocal microscopy. As to conditions: one partner purified.

The target of data set [6] is T6, His14-NEDD8-tagged APD of xtNup98 (715–866) (Xenopus tropicalis, UniProt A0A1B8XZT4).
T6 construct: held on the Ni2+ chelate matrix by the tag; the tag was cleaved by NEDP1 only for elution; also called Nup98-APD; immobilized APD; source: E. coli NEB Express, purified
Put plainly: pull-down; His14-NEDD8-APD of xtNup98 immobilised on Ni2+ chelate matrix, incubated with xNup98-Nb1t or xhNup98-Nb2i, then xNup96(1–20)-RFP or xtNup88(2–500) added; eluted by NEDP1; SDS-PAGE/Coomassie. As to conditions: both partners purified.

Data set [7] deals with T7, Xenopus Nup98, endogenous (Xenopus laevis (egg extract, assumed), UniProt A0A8J1MFV7).
T7 construct: Nup98, the cut product of the Nup98–Nup96 fusion protein (Nup196); the egg extract contains the already cleaved entities; also called xNup98; source: endogenous, soluble fraction of Xenopus egg extract; also as recruited from the extract to NPCs
Put plainly: immunostaining of cells or tissue; digitonin-semi-permeabilized sfGFP-Nup107 HeLa cells incubated 2 h at RT with buffer or Xenopus egg extract, energy mix and 35 nM fluorescent tracking nanobodies; Airyscan confocal microscopy. As to conditions: one partner purified.

The target of data set [8] is T8, recombinant Xenopus Nup93 target (BLI) (Xenopus, UniProt Q7ZX96).
T8 construct: Nup93, Xenopus; the immunogen was the Nup93 α-solenoid domain; also called xNup93; source: E. coli NEB Express, purified
T8 sequence (Q7ZX96 whole entry, the tested form may be a part): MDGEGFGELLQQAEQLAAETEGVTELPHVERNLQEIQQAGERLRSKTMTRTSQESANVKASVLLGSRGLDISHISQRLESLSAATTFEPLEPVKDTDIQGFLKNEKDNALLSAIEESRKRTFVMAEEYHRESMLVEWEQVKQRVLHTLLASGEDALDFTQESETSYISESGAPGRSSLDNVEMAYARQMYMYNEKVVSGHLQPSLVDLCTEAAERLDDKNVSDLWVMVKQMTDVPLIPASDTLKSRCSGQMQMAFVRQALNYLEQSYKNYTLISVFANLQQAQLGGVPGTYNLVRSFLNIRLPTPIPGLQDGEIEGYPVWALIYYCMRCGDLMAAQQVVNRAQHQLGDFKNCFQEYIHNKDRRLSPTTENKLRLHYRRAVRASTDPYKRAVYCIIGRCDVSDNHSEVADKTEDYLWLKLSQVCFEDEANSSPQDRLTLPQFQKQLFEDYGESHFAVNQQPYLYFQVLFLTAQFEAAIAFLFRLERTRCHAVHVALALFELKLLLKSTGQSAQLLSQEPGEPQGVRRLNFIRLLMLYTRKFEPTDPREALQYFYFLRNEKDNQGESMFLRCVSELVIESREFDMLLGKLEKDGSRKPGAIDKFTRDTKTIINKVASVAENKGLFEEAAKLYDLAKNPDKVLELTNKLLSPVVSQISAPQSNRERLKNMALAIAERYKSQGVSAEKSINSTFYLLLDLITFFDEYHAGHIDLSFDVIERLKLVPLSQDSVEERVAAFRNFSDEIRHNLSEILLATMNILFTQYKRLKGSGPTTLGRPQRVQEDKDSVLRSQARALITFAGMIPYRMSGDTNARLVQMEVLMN
As to the kind of experiment: BLI; nanobodies (biotin-[PEG]3-maleimide on two ectopic cysteines) immobilised on High Precision Streptavidin sensors; target proteins at 30–100 nM; 25 °C; PBS pH 7.4, 0.02% Tween-20, 0.1% BSA; apparent KDs. As to conditions: both partners purified. Background: BLI is a label-free optical method that tracks binding on a fibre tip over time.

In data set [9] the target is T9, recombinant human Nup93 target (BLI) (human, UniProt Q8N1F7).
T9 construct: Nup93, human; the immunogen was the Nup93 α-solenoid domain; also called hNup93; source: E. coli NEB Express, purified
T9 sequence (Q8N1F7 whole entry, the tested form may be a part): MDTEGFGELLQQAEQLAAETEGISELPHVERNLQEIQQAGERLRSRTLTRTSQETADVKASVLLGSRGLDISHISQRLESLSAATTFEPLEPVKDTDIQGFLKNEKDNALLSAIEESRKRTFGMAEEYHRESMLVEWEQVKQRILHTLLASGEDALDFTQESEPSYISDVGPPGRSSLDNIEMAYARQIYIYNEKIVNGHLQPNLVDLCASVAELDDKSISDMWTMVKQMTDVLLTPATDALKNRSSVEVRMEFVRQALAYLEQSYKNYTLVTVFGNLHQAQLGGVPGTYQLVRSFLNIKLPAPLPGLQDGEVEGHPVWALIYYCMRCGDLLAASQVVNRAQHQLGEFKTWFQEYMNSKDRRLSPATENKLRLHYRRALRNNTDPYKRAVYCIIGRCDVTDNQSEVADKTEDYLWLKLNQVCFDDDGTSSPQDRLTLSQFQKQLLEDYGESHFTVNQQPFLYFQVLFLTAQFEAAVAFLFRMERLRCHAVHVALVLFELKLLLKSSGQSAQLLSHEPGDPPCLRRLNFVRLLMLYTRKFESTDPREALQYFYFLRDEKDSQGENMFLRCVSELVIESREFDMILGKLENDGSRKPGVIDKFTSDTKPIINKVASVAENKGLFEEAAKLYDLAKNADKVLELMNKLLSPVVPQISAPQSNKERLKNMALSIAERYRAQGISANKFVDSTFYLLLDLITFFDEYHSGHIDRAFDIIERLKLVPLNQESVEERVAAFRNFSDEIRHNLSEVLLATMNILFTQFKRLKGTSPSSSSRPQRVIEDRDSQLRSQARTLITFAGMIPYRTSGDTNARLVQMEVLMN
The data set is described as above. As to conditions: both partners purified.

Data set [10] concerns the target T10, Xenopus Nup93, endogenous (Xenopus (endogenous in egg extract), UniProt Q7ZX96).
T10 construct: Nup93 of Xenopus egg extract; also called xNup93; source: endogenous, soluble fraction of Xenopus egg extract
As to the kind of experiment: pull-down; (biotin)-Avi-SUMO^Eu1-nanobodies on streptavidin-agarose, incubated with HeLa lysate or soluble fraction of Xenopus egg extract, 40 min, 4 °C; eluted by SENP^EuB; SDS-PAGE/Coomassie, identities confirmed by mass spectrometry. As to conditions: one partner purified.

In another data set the target is T11, human Nup93, endogenous (human (endogenous in HeLa), UniProt Q8N1F7).
T11 construct: Nup93, human; also called hNup93; source: endogenous, HeLa lysate
T11 sequence (Q8N1F7 whole entry): as the sequence (Q8N1F7 whole entry, the tested form may be a part) above
The data set is described as above. As to conditions: one partner purified.

Data set [11] addresses T7, Xenopus Nup98, endogenous. The data set is described as above. As to conditions: one partner purified.
The next data set deals with T12, human Nup98, endogenous (human (endogenous in HeLa), UniProt P52948).
T12 construct: Nup98, the cut product of the Nup98–Nup96 fusion protein, human; also called hNup98; source: endogenous, HeLa lysate; also in NPCs of semi-permeabilized HeLa cells
T12 sequence (P52948 1-880): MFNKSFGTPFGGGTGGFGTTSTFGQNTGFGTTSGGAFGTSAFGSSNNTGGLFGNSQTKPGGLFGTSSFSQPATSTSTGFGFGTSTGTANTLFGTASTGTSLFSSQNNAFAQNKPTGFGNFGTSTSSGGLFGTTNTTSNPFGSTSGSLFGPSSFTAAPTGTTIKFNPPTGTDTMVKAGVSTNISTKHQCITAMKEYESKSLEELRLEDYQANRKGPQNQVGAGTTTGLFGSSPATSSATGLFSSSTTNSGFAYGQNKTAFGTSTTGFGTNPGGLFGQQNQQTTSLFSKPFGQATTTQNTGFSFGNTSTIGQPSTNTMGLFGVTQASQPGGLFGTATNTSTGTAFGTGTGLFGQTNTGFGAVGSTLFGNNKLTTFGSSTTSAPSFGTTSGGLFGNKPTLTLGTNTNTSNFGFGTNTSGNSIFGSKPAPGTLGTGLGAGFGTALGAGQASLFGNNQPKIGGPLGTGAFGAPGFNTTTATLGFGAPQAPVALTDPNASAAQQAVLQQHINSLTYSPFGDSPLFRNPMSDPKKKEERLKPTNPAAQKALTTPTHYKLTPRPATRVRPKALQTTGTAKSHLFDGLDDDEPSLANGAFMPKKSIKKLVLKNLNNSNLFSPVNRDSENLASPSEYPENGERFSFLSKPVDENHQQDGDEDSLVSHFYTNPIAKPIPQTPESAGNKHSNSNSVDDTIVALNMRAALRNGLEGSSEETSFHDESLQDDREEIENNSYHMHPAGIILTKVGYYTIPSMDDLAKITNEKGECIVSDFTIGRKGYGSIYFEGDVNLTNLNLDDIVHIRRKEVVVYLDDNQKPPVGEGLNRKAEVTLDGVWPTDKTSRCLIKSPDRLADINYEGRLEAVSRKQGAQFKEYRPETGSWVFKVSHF
The data set is described as above. As to conditions: one partner purified.

T1 sequence (Q7ZX96 168-820): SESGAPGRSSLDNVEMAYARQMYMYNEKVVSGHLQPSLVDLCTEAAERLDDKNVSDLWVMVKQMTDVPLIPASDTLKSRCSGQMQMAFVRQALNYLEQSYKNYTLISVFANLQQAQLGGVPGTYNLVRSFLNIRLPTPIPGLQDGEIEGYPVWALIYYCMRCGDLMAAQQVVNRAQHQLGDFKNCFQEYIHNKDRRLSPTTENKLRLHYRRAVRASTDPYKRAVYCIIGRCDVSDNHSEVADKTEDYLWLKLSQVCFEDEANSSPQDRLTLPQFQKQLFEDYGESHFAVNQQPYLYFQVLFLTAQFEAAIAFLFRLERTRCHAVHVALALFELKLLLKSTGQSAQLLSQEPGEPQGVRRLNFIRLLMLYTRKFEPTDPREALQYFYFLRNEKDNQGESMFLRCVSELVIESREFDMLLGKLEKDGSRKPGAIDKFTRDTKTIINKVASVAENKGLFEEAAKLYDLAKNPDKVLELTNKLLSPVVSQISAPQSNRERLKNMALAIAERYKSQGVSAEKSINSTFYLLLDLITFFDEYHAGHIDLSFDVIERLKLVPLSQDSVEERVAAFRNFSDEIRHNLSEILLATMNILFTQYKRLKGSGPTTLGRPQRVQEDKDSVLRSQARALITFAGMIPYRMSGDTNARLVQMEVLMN
T4 sequence (Q8NFH5 whole entry): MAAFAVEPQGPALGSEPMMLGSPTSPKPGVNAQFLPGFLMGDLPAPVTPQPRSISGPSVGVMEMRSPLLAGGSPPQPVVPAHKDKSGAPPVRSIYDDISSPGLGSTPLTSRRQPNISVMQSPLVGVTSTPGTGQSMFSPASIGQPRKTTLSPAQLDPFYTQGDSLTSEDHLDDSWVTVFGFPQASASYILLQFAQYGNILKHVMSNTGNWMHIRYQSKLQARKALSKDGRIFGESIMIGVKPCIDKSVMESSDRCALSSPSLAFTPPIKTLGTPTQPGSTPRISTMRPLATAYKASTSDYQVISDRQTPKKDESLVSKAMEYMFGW
T10 sequence (Q7ZX96 whole entry): as the sequence (Q7ZX96 whole entry, the tested form may be a part) above

B1: hNup35 (residues 173–248), RRM domain (domain or fragment, human, UniProt Q8NFH5 173-248, looked up)
chain: DSWVTVFGFPQASASYILLQFAQYGNILKHVMSNTGNWMHIRYQSKLQARKALSKDGRIFGESIMIGVKPCIDKSV
notes: Nup35 (also called Nup53 or MP44), human, RRM domain, residues 173-248; also called homodimeric RRM domain of Homo sapiens (h)Nup35; Nup35 RRM; source: E. coli NEB Express, purified, untagged
Turning to B1, the binding result in data set [1] was “binds”.

B2: xNup93-Nb2t (VHH)
VHH: DVQLVESGGGLVQPGGSLRLSCVASGFTFSRVGMGWVRQAPGKGLEWVSDINASGGTGYADSVKGRFAISRDNAKNTLYLQMNRLKPEDTAVYYCAKMMDTAMIEAGIIKPAGQGTQVTVSS
notes: they are in the PDB entry of the unliganded nanobody (printed as 8CDT in the methods and 8CD7 in the data availability) and in PDB 7ZOX; purified untagged in the cryo-EM complex; for the unliganded crystal expressed as a His14-bdSUMO fusion and cleaved; also called tracking nanobody xNup93-Nb2t; source: E. coli SHuffle, purified
As for B2, the binding result in data set [2] is given as “binds”.

B3: xhNup98-Nb3i (VHH)
VHH: QVQLVESGGGLVQAGGSLRLSCAASGRTFSTYAMGWFRQAPGKEREFVSACSWSGGITRYADSVKGRFTISRDNAKNTVYLQMNSLKPEDTAVYYCASAASSAAYSGAYYYTSYYDYWGQGTQVTVSS
notes: they are in PDB 7NOW (complex with xNup98-APD); form of the crystal structure; source: E. coli SHuffle, purified (Ni2+ chelate, NEDP1 protease elution, SEC)
As for B3, the binding result in data set [3] is given as “binds”.

B4: xhNup35-Nb1t (VHH)
VHH: QVQLVESGGGLVQAGGSLRLSCVGTGNISSAYTMAWYRQAAGKEREVVAGILNGGSTHYADSVKGRFTISRDNAKNTVYLQMNSLQPEDTGVYCCHVVIESTRFVYDHYWGQGTRVTVSS
notes: they are in PDB 8OZB (complex with the human Nup35 RRM homodimer); form of the crystal structure; also called cross-specific anti-Nup35 nanobody; source: E. coli SHuffle, purified (Ni2+ chelate, NEDP1 protease elution, SEC)
For B4, the binding result in data set [4] was “binds”.

B5: xhNup35-Nb1t, fluorophore-labelled (VHH)
VHH: B4 VHH
notes: as the VHH of m12 with engineered cysteines; source: E. coli SHuffle, purified, labelled with maleimide dye
Turning to B5, the binding result in the data set with human Nup35, endogenous is “binds”; in data set [5] it was “binds”.

B6: xNup98-Nb1t (as added in the binding assay of Fig. 11C) (VHH)
VHH: QVQLVESGGGPVEAGGSLRLSCAASGRSFSNSVMAWFRQAPGKEREFLSVLNWSSGRTSIADSVKGRFTMSRDPAKITVYLQMNGLKPEDTAVYYCAASNRGSLYTLDNQNRYEDWGQGTQVTVSS
notes: they are in PDB 5E0Q (xNup98-APD·xNup98-Nb1t complex, Pleiner et al, 2015); also called tracking nanobody xNup98-Nb1t; source: E. coli SHuffle, purified
Consider B6, for which the binding result in [6] is given as “binds”.

B7: xNup98-Nb1t, fluorophore-labelled (VHH)
VHH: B6 VHH
notes: as the VHH of m10 with engineered cysteines; source: E. coli SHuffle, purified, labelled with maleimide dye
In the case of B7, the binding result in [7] is on record as “binds”.

B8: xhNup93-Nb4i, biotinylated for BLI (VHH)
VHH: QVQLVESGGGVVQTGDSLMLSCTVSGHTIDNWAMGWFRQTPRKQREFVAAIDKRGTGAIYGNSVKGRFTVSRDNAKNMVYLRMNSLKPEDTAVYFCAVDQLNAGLGDVSYDYDYWGQGTQVTVSS
notes: as the VHH of m1 with two ectopic cysteines; source: E. coli SHuffle, purified
With B8, the binding result in data set [8] and in data set [9] was “binds” throughout.

B9: xhNup93-Nb4i (VHH)
VHH: B8 VHH
notes: they are in PDB 8CDS (unliganded nanobody) and PDB 7ZOX (complex with xNup93); form used for the cryo-EM complex; for the unliganded crystal it was expressed as a His14-bdSUMO fusion and cleaved; source: E. coli SHuffle, purified (Ni2+ chelate, NEDP1 protease elution, SEC)
Turning to B9, the binding result in data set [2] is listed as “binds”.

B10: (biotin)-Avi-SUMO^Eu1-xhNup93-Nb4i (VHH)
VHH: B8 VHH
notes: as the VHH of m1; the tag was cleaved by SENP^EuB only for elution; source: E. coli SHuffle, purified; not shown: Avi (biotinylated), N-terminal, kept; SUMO^Eu1, N-terminal, kept
Take B10: the binding result is listed as “binds” in [10] and “binds” with human Nup93, endogenous.

B11: xhNup98-Nb2i (VHH)
VHH: QVQLVESGGGLAKPGGSLRLSCVATGTFRSMEDVGWYRQAPGKDRELVAEITTLGKVTYADSVKGRFTISRDDAKNAVYLQMSDLKSEDTAVYYCNIEADQTKGIGYVVYPYWGQGTRVTVSS
notes: they are in PDB 7NQA (complex with xNup98-APD); form of the crystal structure; also called xNup98-Nb2i; source: E. coli SHuffle, purified (Ni2+ chelate, NEDP1 protease elution, SEC)
B11: the binding result in data set [3] is given as “binds”.

B12: xhNup98-Nb2i (as added in the binding assay of Fig. 11C) (VHH)
VHH: B11 VHH
notes: as the VHH of m5; source: E. coli SHuffle, purified
For the molecule B12, in [6], the binding result is “binds”.

B13: (biotin)-Avi-SUMO^Eu1-xhNup98-Nb2i (VHH)
VHH: B11 VHH
notes: as the VHH of m5; the tag was cleaved by SENP^EuB only for elution; source: E. coli SHuffle, purified; not shown: Avi (biotinylated), N-terminal, kept; SUMO^Eu1, N-terminal, kept
Turning to B13, the binding result in data set [11] is given as “binds”; with human Nup98, endogenous it was “binds”.
